Laboratory results reported in patent publication US20020049159A1 (published 2002).

Target: T1, OP-1 pro domain polypeptide (human, UniProt P18075 30-292)
T1 construct: Two pro domains (39 kDa each) stand in the soluble complex with one mature dimer; The complex was isolated from CHO conditioned medium; also called pro domain peptide
Test: soluble complex purified from CHO conditioned medium without denaturants (Zn-IMAC, S-Sepharose, Sephacryl S-200HR gel filtration); elutes at an apparent 110 kDa
Experimental: In this example, OP-1 was expressed in mammalian (CHO, Chinese hamster ovary) cells as described in the art (see, for example, international application US90/05903 (WO 91/05802). The CHO cell conditioned media containing 0.5% FBS is initially purified using Immobilized Metal-Ion Affinity Chromatography (IMAC). The soluble OP-1 complex from conditioned media binds very selectively to the Zn-IMAC resin and a high concentration of imidazole (50 mM imidazole, pH 8.0) is required for the effective elution of the bound complex. The Zn-IMAC purified soluble OP-1 is next applied to an S-Sepharose action-exchange column equilibrated in 20 mM NaPO₄ (pH 7.0) with 50 mM NaCl. The protein then is applied to a Sephacryl S-200HR column equilibrated in TBS. Using substantially the same protocol, soluble morphogens can also be isolated from one or more body fluids, including milk, serum, cerebrospinal fluid or peritoneal fluid.

T1 sequence (P18075 30-292): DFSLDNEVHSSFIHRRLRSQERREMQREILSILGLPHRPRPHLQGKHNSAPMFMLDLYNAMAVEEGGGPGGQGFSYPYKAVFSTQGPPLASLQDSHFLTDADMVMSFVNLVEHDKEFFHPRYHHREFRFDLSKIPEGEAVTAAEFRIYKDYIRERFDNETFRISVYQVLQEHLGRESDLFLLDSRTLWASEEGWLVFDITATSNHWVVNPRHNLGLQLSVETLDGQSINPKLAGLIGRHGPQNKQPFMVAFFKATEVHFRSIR

B1: mature human OP-1 dimer (recombinant, expressed in CHO cells) (ligand)
chain: STGSKQRSQNRSKTPKNQEALRMANVAENSSSDQRQACKKHELYVSFRDLGWQDWIIAPEGYAAYYCEGECAFPLNSYMNATNHAIVQTLVHFINPETVPKPCCAPTQLNAISVLYFDDSSNVILKKYRNMVVRACGCH
notes: Dimer of 35-36 kDa, glycosylated when made in CHO cells; also called hOP-1; human osteogenic protein 1
B1: binds.
